Data as given in patent US12723255B2, “Herbicide tolerance genes and methods of use thereof” (priority 2014, dated 2026).

B1: MON-HT1: engineered oxygenase protein, amino acid sequence SEQ ID NO:14 (protein)
chain: MHAALTPLTNKYRFIDVQPLTGVLGAEITGVDLREPLDDSTWNEILDAFHTYQVIYFPGQAITNEQHIAFSRRFGPVDPVPILKSIEGYPEVQMIRREANESSRFIGDDWHTDSTFLDAPPAAVVMRAIEVPEYGGDTGFLSMYSAWETLSPTMQATIEGLNVVHSATKVFGSLYQATNWRFSNTSVKVMDVDAGDRETVHPLVVTHPVTGRRALYCNQVYCQKIQGMTDAESKSLLQFLYEHATKFDFTCRVRWKKDQVLVWDNLCTMHRAVPDYAGKFRYLTRTTVAGDKPSR
B2: MON-HT55: engineered oxygenase protein, amino acid sequence SEQ ID NO:11 (protein)
chain: MHAALSPLSQRFERIAVQPLTGVLGAEITGVDLREPLDDSTWNEILDAFHTYQVIYFPGQAITNEQHIAFSRRFGPVDPVPLLKSIEGYPEVQMIRREANESGRVIGENWHTDSTFLDAPPAAVVMYAKEIPPYGGDTLFTSMYTAWETLSPTMQATIEGLNVVHSATRVFGSLYQAQNRRFSNTSVKVMDVDAGDRETVHPLVVTHPETGRKGLYVNQVYCQRIEGMSEKESEPLLSFLFAHATKPEFTCRVRWQEGDVLVWDNLCTQHYAVPDYAGKFRYLTRTTVGGVRPAR

What was measured:
[1] = enzyme activity assay at 23° C. with purified enzyme; type: biochemical
Description: The enzyme activity of MON-HT protein variants with triclopyr, fluroxypyr, MCPA, MCPB, mecoprop, as substrates was determined using the enzyme activity assay conducted at 23° C. with purified enzyme. The activity was recorded as the maximum activity as a percentage of the wild-type RdpA enzyme's activity, which was set at 100%. […] The enzymatic activity with mecoprop as a substrate was reduced for each of the MON-HT1, MON-HT13, MON-HT15, and MON-HT17 variants compared to the wild-type RdpA enzyme. An unexpected result was that enzymatic activity with MCPA as a substrate was roughly 6-fold greater for MON-HT1, and approximately 10-fold greater for MON-HT13, MON-HT15, and MON-HT17 compared to the wild-type RdpA enzyme.

transgenic maize plants = test: R1 green house quizalofop-P spray test; type: in vivo; conditions: R1 maize with CTP; quizalofop-P 1× at V2; eleven days after treatment
Description: Plant transformation vectors were constructed each comprising a recombinant DNA molecule encoding one of three engineered proteins with the protein-coding sequence optimized for monocot expression, MON-HT51 (SEQ ID NO:3), MON-HT52 (SEQ ID NO:6), and MON-HT55 (SEQ ID NO:13). The vectors were created using different combinations of promoter, leader, intron, and 3′UTR and with and without a CTP operably linked to the protein-coding sequence. Also included in the vectors was a second DNA cassette comprising a cp4-EPSPS coding sequence to be used in transgenic plants for glyphosate tolerance. Immature maize (LH244) embryos were transformed with these vectors using Agrobacterium tumifaciens and standard methods known in the art. Regenerated R0 transgenic plantlets were grown in the green house and sprayed at approximately V2-V4 growth stage with 0.04 or 0.08 lb ai/acre quizalofop-P (AssureTM II, E.I. DuPont), representing 0.5× and 1× rates, respectively. Leaf samples were used to identify transgenic plants with a single copy of the transgenic DNA insert (that is, single event plants). […]
R1 plants expressing MON-HT55 with and without an operably linked CTP were grown in the green house and quizalofop-P herbicide was applied at the V2 growth stage at a rate of 0.08Ib ac/acre (1×). Plants were evaluated for injury eleven days after treatment.

F1 hybrid maize plants [2] = test: plant-based assay for heat sensitivity, quizalofop-P tolerance; type: in vivo; conditions: 2× quizalofop-P, ten days post treatment, 0 no visible injury, 5 dead plants
Description: A plant-based enzyme activity assay for heat sensitivity was used to determine the effect of elevated growth temperatures on the herbicide tolerance of transgenic plants containing the optimized engineered proteins. To test for quizalofop-P tolerance at elevated growth temperatures, F1 hybrid (produced by crossing an R1 homozygous plant expressing one of the MON-HT proteins with inbred maize event MON89034) maize seed was grown in a growth chamber for 10 days at a day temperature of 28° C. and a night temperature of 20° C. with 50% humidity. After 10 days, the plants were moved to acclimate for 3 days at one of three different day and night temperature regimens: (1) both day and night temperatures set at 20° C.; (2) day temperature at 28° C. and night temperature at 20° C.; or (3) day temperature at 38° C. and night temperature at 30° C. At the end of the acclimation period, the plants were generally at V4 growth stage and were sprayed with 2× quizalofop-P. Ten days post treatment the plants were scored for injury on a rating scale of 1 to 5 where ‘0’ is no visible injury observed, ‘1’ is chlorotic speckling, ‘2’ is chlorotic streaking, ‘3’ there are leaf gaps or tears, ‘4’ are plants with stunted growth and/or twisted leaves, and ‘5’ are dead plants or no growth observed. […] (FIG. 4A) or 28° C./20° C. […]

F1 hybrid maize plants [3] = test: plant-based growth chamber assay for temperature-sensitive quizalofop-P tolerance; type: in vivo
Description: The finding that hybrid plants expressing the engineered proteins MON-HT55 or MON-HT51 were sensitive to quizalofop-P application when grown in field conditions of high temperature was confirmed using a plant-based assay. The plant-based assay was designed to test tolerance to quizalofop-P of F1 hybrids in the growth chamber prior to field testing. The assay was developed using F1 hybrids of plants containing maize events NK603 (U.S. Pat. No. 8,273,959)×MON89034 (U.S. Pat. No. 8,581,047) and F1 hybrids of plants containing MON-HT55×MON89034. F1 hybrid seed was germinated in a growth chamber for 1 week and then moved to one of three different growth chambers to acclimate for two days at day/night temperatures of 20° C./20° C., 28° C./20° C., and 38° C./30° C. prior to application of 2× (0.16 lb ai/acre) quizalofop-P. As expected, the plants not containing MON-HT55 at all temperature regimens were severely injured by 2× quizalofop-P application (FIG. 1B). […] (FIG. 1C). This confirmed that the plant-based assay could be used to screen proteins in plants in the growth chamber for temperature-sensitive activity.

[4] = percentage of wild-type RdpA, set at 100%

| Molecule | activity with MCPB as the substrate [1] | enzymatic activity with MCPA greater compared to the wild-type RdpA enzyme [1] | activity with fluroxypyr as the substrate ([1]; not robust enough to quantify) | activity with triclopyr as the substrate ([1]; not robust enough to quantify) | MCPA Km [1, 4] | MCPA Vmax [1, 4] | Mecoprop Km [1, 4] | injury scores (transgenic maize plants) | injury rating (F1 hybrid maize plants [2]; day/night 20° C./20° C. or 28° C./20° C.) | injury rating (F1 hybrid maize plants [2]; day/night 38° C./30° C.) | tolerance to 2× quizalofop-P application (F1 hybrid maize plants [3]; acclimated at day/night 20° C./20° C. or 28° C./20° C.) | tolerance to 2× quizalofop-P application (F1 hybrid maize plants [3]; acclimated at day/night 38° C./30° C.) |
| --- | --- | --- | --- | --- | --- | --- | --- | --- | --- | --- | --- | --- |
| B1 | no detectable activity | roughly 6 fold | detectable activity | detectable activity | 21% | 600% | 142% |  |  |  |  |  |
| B2 |  |  |  |  |  |  |  | ≤ 5% | around 2 | 3 | good tolerance | significant sensitivity |
